# Data taken from patent US20230030529A1 (NORDIC BIOSCIENCE A S, published 2023).
# Ends that are not written are not given here. * marks the point of attachment. Biotin = O=C1N[C@H]2[C@H](CS[C@H]2CCCCC(=O)*)N1
# T1: Non-sense coating peptide LLARDFEKNY-K-biotin
# T1 construct: also called non-sense biotinylated peptide
# T1 peptide: LLARDFEKNYK(Biotin)
# B1: C4-aa^1355 monoclonal antibody (antibody, V domains shown)
# VH: QVTLKESGPGILQPSQTLSLTCSFSGFSLTTYNIGVGWIRQSSGKGLEWLAHIWYNDIKYYNTALKSRLTISKDTSNNQVFLKIASVVTADTATYYCARLRPDSFDYWGQGTTLTVSS
# VL: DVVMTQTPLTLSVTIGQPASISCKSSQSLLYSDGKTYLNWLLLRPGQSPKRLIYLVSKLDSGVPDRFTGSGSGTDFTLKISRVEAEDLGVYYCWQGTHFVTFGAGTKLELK
# notes: It was SULFO-TAG labelled in the ECLIA; also called the monoclonal antibody
# B2: Selection peptide MGNTGPTGAV (peptide)
# peptide: MGNTGPTGAV
# notes: also called target peptide
# Tests used:
# [1] = target: B1; assay: competitive C4-aa^1355 ECLIA (peptide in solution against the biotinylated coating peptide)
# Experimental: The target sequence was used as the selection peptide ([…] (SEQ ID No. 1)). The immunogenic peptide ([…]-GGC-KLH) was generated by covalently linking the selection peptide to Keyhole Limpet Hemocyanin (KLH) carrier protein with addition of glycine and cysteine residues in between to ensure right linking. A biotinylated peptide ([…]-K-biotin) was used as a coating peptide. The specificity of the antibody was tested by including an elongated peptide ([…] (SEQ ID No. 7)), a truncated peptide ([…] (SEQ ID No. 3)), a non-sense selection peptide ([…] (SEQ ID No. 18)) and a non-sense coating peptide ([…]-K-biotin). To test for potential cross-reactivity to other ECM proteins with similar sequences, three peptides with one amino acid mismatch at either position one ([…] (SEQ ID No. 6)), three ([…] (SEQ ID No. 4)) or four ([…] (SEQ ID No. 5)) from the N-terminal were included in the specificity test. Antibody specificity was calculated as percentage of signal inhibition of two-fold diluted peptides.
# During assay development, an optimal incubation buffer, time, temperature and concentrations of antibody and coating peptide were determined and the finalized competitive C4-aa¹³⁵⁵ ECLIA protocol was as follows: A MSD GOLD 96-well streptavidin pre-coated plate (Meso Scale Discovery, cat. no. L15SA-1) was incubated with 150 μl/well blocking buffer (10 mM phosphate-buffered saline (PBS) with bovine serum albumin (BSA) (5% w/v) and bronidox (0.36% v/v), 8 g/L NaCl, pH 7.4) for 60 minutes at 20° C. with shaking (300 rpm) in darkness. The plate was coated with 25 μl/well biotinylated coating peptide dissolved in assay buffer (50 mM PBS with BSA (1% w/v), Tween-20 (0.1% w/v) and bronidox (0.36% v/v), 8 g/L NaCl, pH 7.4) to a concentration at 2 ng/ml and incubated for 60 minutes at 20° C. with shaking (750 rpm) in darkness. Next, 25 μl/well selection peptide, assay controls or pre-diluted serum/plasma sample (1:2) were added followed by immediately addition of 25 μl/well of SULFO-TAG (MSD GOLD SULFO-TAG NHS-Ester Conjugation, Meso Scale Discovery, cat. no. R31AA-1) labelled monoclonal antibody diluted in assay buffer to a final concentration at 25 ng/ml and the plate incubated 20 hours at 4° C. with shaking (300 rpm) in darkness.
# [2] = target: T1, Non-sense coating peptide …; assay: ECLIA with the non-sense coating peptide on the streptavidin plate
# Experimental: The target sequence was used as the selection peptide ([…] (SEQ ID No. 1)). The immunogenic peptide ([…]-GGC-KLH) was generated by covalently linking the selection peptide to Keyhole Limpet Hemocyanin (KLH) carrier protein with addition of glycine and cysteine residues in between to ensure right linking. A biotinylated peptide ([…]-K-biotin) was used as a coating peptide. The specificity of the antibody was tested by including an elongated peptide ([…] (SEQ ID No. 7)), a truncated peptide ([…] (SEQ ID No. 3)), a non-sense selection peptide ([…] (SEQ ID No. 18)) and a non-sense coating peptide ([…]-K-biotin). […] Antibody specificity was calculated as percentage of signal inhibition of two-fold diluted peptides.
# During assay development, an optimal incubation buffer, time, temperature and concentrations of antibody and coating peptide were determined and the finalized competitive C4-aa¹³⁵⁵ ECLIA protocol was as follows: A MSD GOLD 96-well streptavidin pre-coated plate (Meso Scale Discovery, cat. no. L15SA-1) was incubated with 150 μl/well blocking buffer (10 mM phosphate-buffered saline (PBS) with bovine serum albumin (BSA) (5% w/v) and bronidox (0.36% v/v), 8 g/L NaCl, pH 7.4) for 60 minutes at 20° C. with shaking (300 rpm) in darkness. […]
# [3] = target: T2, Recombinant type IV collagen alpha2 chain, undigested (without protease) (UniProt P08572 184-1712); assay: competitive C4-aa^1355 ECLIA on the collagen sample
# T2 construct: Bought recombinant protein; also called non-digested type IV collagen; type IV collagen α2 chain
# Experimental: (§1) During assay development, an optimal incubation buffer, time, temperature and concentrations of antibody and coating peptide were determined and the finalized competitive C4-aa¹³⁵⁵ ECLIA protocol was as follows: A MSD GOLD 96-well streptavidin pre-coated plate (Meso Scale Discovery, cat. no. L15SA-1) was incubated with 150 μl/well blocking buffer (10 mM phosphate-buffered saline (PBS) with bovine serum albumin (BSA) (5% w/v) and bronidox (0.36% v/v), 8 g/L NaCl, pH 7.4) for 60 minutes at 20° C. with shaking (300 rpm) in darkness. […] Finally, 150 μl/well of MSD GOLD Read Buffer (Meso Scale Discovery, cat. no. R92TG-2) was added and the plate was read immediately within 2 minutes in a Sector Imager 6000 (Meso Scale Discovery). SULFO-TAG enabled light emission when electricity was applied, and the light emission data was analyzed using the MSD Discovery Workbench 4.0 software. The analyte concentration was calculated using a 4-parametric curve fit model.
# To confirm that the C4-aa¹³⁵⁵ antibody/assay recognized a protease generated type IV collagen neo-epitope, C4-aa¹³⁵⁵ was measured in non-digested, MMP-9 digested and GzB digested type IV collagen.
# [4] = target: B2; assay: preliminary competitive ELISA, biotinylated coating peptide on streptavidin plates
# Experimental: Female Balb/C mice of 6-7 weeks of age were immunized subcutaneously with 200 μl emulsified antigen containing 100 μg immunogenic peptide ([…]-GGC-KLH) with Stimune Immunogenic adjuvant (Thermo fisher, cat. no. 7925000) repeatedly every second week until stable titer levels were obtained. The mouse with the highest antibody titer rested for four weeks and was then boosted intraperitoneally with immunogenic peptide. After three days, splenocytes were isolated and fused with murine SP2/0 myeloma cells to produce hybridoma cells as previously described (17). The hybridoma cells were cultured in 96-well microtiter plates and limited dilution was used to secure monoclonal growth. Supernatants from the monoclonal antibody producing hybridoma cells were screened for reactivity against the selection peptide and human serum samples in a preliminary competitive ELISA using biotinylated coating peptide on streptavidin-coated microtiter plates (Roche, cat. no. 11940279). The clone with the best reactivity towards the selection peptide was purified using protein-G-columns according to the manufacturer's instructions (GE Healthcare Life Sciences, cat. no. 17-0404-01).
# [5] = target: B1; assay: competitive C4-aa^1355 ECLIA, peptide in solution against the biotinylated coating peptide
# Experimental: as §1, with “darkness. The plate was coated with 25 μl/well biotinylated coating peptide dissolved in assay buffer (50 mM PBS with BSA (1% w/v), Tween-20 (0.1% w/v) and bronidox (0.36% v/v), 8 g/L NaCl, pH 7.4) to a concentration at 2 ng/ml and incubated for 60 minutes at 20° C. with shaking (750 rpm) in darkness.” for “darkness.”
# Target sequence in this assay (VL, as listed by the source): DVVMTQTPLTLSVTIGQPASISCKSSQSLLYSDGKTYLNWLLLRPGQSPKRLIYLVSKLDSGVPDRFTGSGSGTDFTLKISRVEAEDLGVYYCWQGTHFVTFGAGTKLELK
# T2 sequence (P08572 184-1712): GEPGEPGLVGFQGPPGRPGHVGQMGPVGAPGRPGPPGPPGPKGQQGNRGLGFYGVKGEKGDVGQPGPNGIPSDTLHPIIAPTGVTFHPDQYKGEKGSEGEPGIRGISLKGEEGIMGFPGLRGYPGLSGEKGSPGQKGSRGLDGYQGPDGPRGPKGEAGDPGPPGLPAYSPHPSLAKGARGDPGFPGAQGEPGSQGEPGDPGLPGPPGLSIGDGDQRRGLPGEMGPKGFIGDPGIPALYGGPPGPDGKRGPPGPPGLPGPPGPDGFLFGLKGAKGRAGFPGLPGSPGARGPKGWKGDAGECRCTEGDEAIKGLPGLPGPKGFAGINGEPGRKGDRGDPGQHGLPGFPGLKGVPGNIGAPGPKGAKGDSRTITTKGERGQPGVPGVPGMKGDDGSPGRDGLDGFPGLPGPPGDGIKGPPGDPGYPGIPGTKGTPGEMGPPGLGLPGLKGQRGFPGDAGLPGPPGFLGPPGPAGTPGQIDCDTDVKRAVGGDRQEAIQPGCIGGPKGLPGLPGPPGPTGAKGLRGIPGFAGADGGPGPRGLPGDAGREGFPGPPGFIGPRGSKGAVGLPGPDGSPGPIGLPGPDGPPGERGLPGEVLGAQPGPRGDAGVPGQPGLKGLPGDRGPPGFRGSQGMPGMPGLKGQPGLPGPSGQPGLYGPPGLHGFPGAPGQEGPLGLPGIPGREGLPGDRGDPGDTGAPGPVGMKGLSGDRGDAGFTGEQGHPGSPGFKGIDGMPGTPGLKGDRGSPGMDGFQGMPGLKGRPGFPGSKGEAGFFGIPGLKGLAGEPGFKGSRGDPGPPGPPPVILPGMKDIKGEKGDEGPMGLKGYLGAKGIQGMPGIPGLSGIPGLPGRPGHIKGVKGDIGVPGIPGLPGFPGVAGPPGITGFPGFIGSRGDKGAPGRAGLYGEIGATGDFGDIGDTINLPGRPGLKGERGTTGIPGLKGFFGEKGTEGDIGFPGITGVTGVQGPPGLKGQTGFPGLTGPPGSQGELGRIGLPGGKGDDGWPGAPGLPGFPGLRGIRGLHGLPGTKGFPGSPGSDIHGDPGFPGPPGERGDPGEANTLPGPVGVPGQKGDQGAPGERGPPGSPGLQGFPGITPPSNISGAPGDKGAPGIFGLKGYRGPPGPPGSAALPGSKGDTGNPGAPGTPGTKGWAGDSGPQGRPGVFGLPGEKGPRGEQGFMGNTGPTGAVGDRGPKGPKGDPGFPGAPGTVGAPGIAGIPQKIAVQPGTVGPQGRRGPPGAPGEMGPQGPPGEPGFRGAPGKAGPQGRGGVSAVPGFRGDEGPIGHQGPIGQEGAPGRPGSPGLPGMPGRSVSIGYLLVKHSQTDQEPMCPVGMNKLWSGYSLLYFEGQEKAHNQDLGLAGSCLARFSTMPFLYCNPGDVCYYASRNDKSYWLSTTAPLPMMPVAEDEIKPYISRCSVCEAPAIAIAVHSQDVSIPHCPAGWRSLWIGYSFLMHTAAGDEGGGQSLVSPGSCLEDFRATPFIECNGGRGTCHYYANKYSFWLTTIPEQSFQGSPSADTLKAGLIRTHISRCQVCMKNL
binding result [1],Binder,also measured
no binding,FMGNTGPTGAV [Elongated peptide FMGNTGPTGAV],–
–,B1,binding result [2]: no binding; binding result [3]: no binding; binding result [4]: binds
–,B2,binding result [5]: binds
no binding (tested: 0-30 ng/ml),QGNTGPTGAV (also called Deselection 3) [Deselection peptide 3 QGNTGPTGAV],–
no binding (tested: 0-30 ng/ml),MGQTGPTGAV (also called Deselection 1) [Deselection peptide 1 MGQTGPTGAV],–
no binding,GNTGPTGAV [Truncated peptide GNTGPTGAV],–
no binding,LLARDFEKNY [Non-sense selection peptide LLARDFEKNY],–
